# Counter-ions that a name gives are not always drawn.
# B1: CTI-07 (antibody, V domains shown)
# VH: EVQLVQSGGEVKKPGASVKVSCKASGYTLSSHGITWVRQAPGQGLEWMGWISAHSGHASNAQKVEDRVTMTTDTSTNTAYMELRSLTADDTAVYYCARVHAALYYGMDVWGQGTLVTVSS
# VL: LSVLTQPPSVSVAPGQTARITCGGNNIGSKGVHWYQQKPGQAPVLVVYDDSDRPSGIPERFSGSNSGNTATLTISRVEAGDEADYYCQVWDSSSDHWVFGGGTKLTVL
# B2: CTI-57 (antibody, V domains shown)
# VH: EVQLVQSGGEVKKPGASVKVSCKASGYTLSSHGITWVRQAPGQGLEWMGWISAHSGHASNAQKVEDRVTMTTDTSTNTAYMELRSLTADDTAVYYCARVWRALYHGMDVWGQGTLVTVSS
# VL: LSVLTQPPSVSVAPGQTARITCGGNNIGSKGVHWYQQKPGQAPVLVVYDDSDRPSGIPERFSGSNSGNTATLTISRVEAGDEADYYCQVWDSSSDHWVFGGGTKLTVL
# B3: CTI-58 (antibody, V domains shown)
# VH: EVQLVQSGGEVKKPGASVKVSCKASGYTLSSHGITWVRQAPGQGLEWMGWISAHSGHASNAQKVEDRVTMTTDTSTNTAYMELRSLTADDTAVYYCARVHAALYHGMDVWGQGTLVTVSS
# VL: LSVLTQPPSVSVAPGQTARITCGGNNIGSKGVHWYQQKPGQAPVLVVYDDSDRPSGIPERFSGSNSGNTATLTISRVEAGDEADYYCQVWDSSSDHWVFGGGTKLTVL
# B4: CTI-48: fully human anti-PD-L1 IgG1; HCDR1-3 SEQ ID NO: 11, 19, 27; LCDR1-3 SEQ ID NO: 31, 33, 35 (antibody, chains of the INN, looked up, V domains shown)
# VH: EVQLVQSGAEVKKPGSSVKVSCKASGGTFSRSAISWVRQAPGQGLEWMGVIIPAFGEANYAQKFQGRVTITADESTSTAYMELSSLRSEDTAVYYCARGRQMFGAGIDFWGQGTLVTVSS
# VL: NFMLTQPHSVSESPGKTVTISCTRSSGSIDSNYVQWYQQRPGSAPTTVIYEDNQRPSGVPDRFSGSIDSSSNSASLTISGLKTEDEADYYCQSYDSNNRHVIFGGGTKLTVL
# Columns and labels:
# patients with CLL = settings: pembrolizumab alone; cited from earlier work
# PI3K isoforms (Human) α = PI3K isoforms (Human) α (Homo sapiens, UniProt P42336); assay: biochemical
# PI3K isoforms (Human) γ = PI3K isoforms (Human) γ (Homo sapiens, UniProt P48736); assay: biochemical
# [1] = oral TGR-1202 under fasted and fed conditions, pharmacokinetics; settings: in vivo, 200 mg, single oral dose of 200 mg; for AUC(0-inf): read-out: AUC0-inf, Geometric LS Means; for AUC(0-t): read-out: AUC0-t, Geometric LS Means; for Cmax: read-out: Cmax, Geometric LS Means
# [2] = micronized vs non-micronized TGR-1202 formulations, pharmacokinetics; settings: in vivo, po, 200 mg, single oral dose of 200 mg; for AUC(0-inf): read-out: AUC0-inf, Geometric LS Means; for AUC(0-t): read-out: AUC0-t, Geometric LS Means; for Cmax: read-out: Cmax, Geometric LS Means
# [3] = test system: patients with relapsed and refractory hematologic malignancies; settings: single agent; relapsed or refractory hematologic malignancies; cited from earlier work
# PI3K isoforms (Human) β = PI3K isoforms (Human) β (Homo sapiens, UniProt P42338); assay: biochemical
# [4] = biological target: T1, PD-L1 antigen of the ForteBio affinity measurement (Example 7) (UniProt Q9NZQ7 19-238, limits assumed); assay: ForteBio BLI, IgG on AHQ sensors, 100 nM antigen, 1:1 model
# [5] = biological target: T1, PD-L1 antigen of the ForteBio affinity …; assay: ForteBio BLI, IgG on AHQ sensors, 100 nM antigen, 1:1 model, monovalent
# [6] = biological target: T2, PD-L1 expressed on transfected CHO cells (UniProt Q9NZQ7 19-290); assay: competitive FACS on PD-L1+ CHO cells; competitor biotin-labeled PD-1 at 1 µg/ml
# T2 construct: whole, on cells; also called PD-L1+cells; PD-L-1+cells
# PD-1:PD-L1 ligation = assay: immunoblockade reporter (NFAT) assay, PD1/PD-L1 Blockade Assay Kit; assay type: cell-based; settings: Jurkat PD-1 Effector cells and aAPC PD-L1 cells
# Experimental: Immunoblockade assays were performed using a PD1/PD-L1 Blockade Assay Kit (Promega, CS187111) in 96 well plates. Three major events occur in the assay. Event 1: TCR-mediated NFAT activation occurs when engineered Jurkat PD-1 Effector cells and aAPC (artificial antigen presenting cell) PD-L1 cells are engaged through TCR/TCR activator interaction. Event 2: Inhibition of NFAT signal by PD-1:PD-L1 ligation when no blocking antibodies are present. Event 3: Recovery of NFAT signal by addition of anti-PD-1 or anti-PD-L1 blocking antibody.
# The day before assay, 25 mL of cell recovery medium (10% FBS/F-12) was made in 50 mL conical tubes for Thaw-and-Use PD-L1 cells by adding 2.5 mL FBS to 22.5 mL F-12. One vial of Thaw-and-Use PD-L1 cells (CS187103) was removed from freezer storage and transferred to the bench on dry ice. The vial was thawed in a 37° C. water bath until cells were just thawed (about 3-4 minutes). The cell suspension was gently mixed in the vial by pipetting up and down. All the cells (0.5 mL) were transferred to a tube labeled “PD-L1 cells” containing 14.5 mL cell recovery medium, followed by gentle inversions. […]
# Thaw-and-Use PD-1 Effector cells (CS187105) were transferred into the assay plates, and the plates were incubated for six hours at 37° C. in CO2 incubator. […] Luminescence was measured in a POLARstar Omega plate reader with 0.5 second integration.
# [7] = biological target: T3, binding of PD-L1 and B7.1 (Homo sapiens, UniProt Q9NZQ7); assay: PD-L1/B7.1 inhibitor screening assay; settings: PD-L1 coated plate, B7.1-biotin
# T3 construct: purchased
# Description: A commercially available assay kit was used to screen and profile the interaction of the disclosed antibodies and the PD-L1/B7.1 interaction. The kit came in a 96-well format with biotin-labeled B7-1 (CD80), purified PD-L1, streptavidin-labeled HRP, and assay buffer for 100 binding reactions. The kit was used to detect biotin-labeled B7.1 by streptavidin-HRP.
# First, PD-L1 was coated on a 96-well plate. Next, either one of the disclosed antibodies, a positive control, a substrate control, or a blank was added to each well and incubated prior to the addition of B7.1-biotin. Finally, the plate was treated with streptavidin-HRP followed by addition of an HRP substrate to produce chemiluminescence, which can then be measured by a chemiluminescence reader.
# PD-L1 [8] = biological target: T4, PD-L1 (Homo sapiens, UniProt Q9NZQ7); assay: Octet antibody binding kinetics
# Experimental: (§1) FIGS. 2A-2C are graphs showing the binding kinetics of exemplary anti-PD-L1 antibody CTI-48 against human PD-L1 (FIG. 2A), mouse PD-L1 (FIG. 2B), and cyno PD-L1 (FIG. 2C).
# (§2) Octet data analysis was used in determining affinity measurements to assess antibody binding kinetics. 2 mL of the loading sample was prepared at 20 ug/mL (default concentration) in kinetic buffer. Aliquot at least 200 uL into a black 96-well plate. Concentration ranges for the sample were based on the estimated KD of the interaction (if available). […] A 7-point dilution was made into the sample column using kinetic buffer as the sample diluent. The last well of the sample column was used as a reference well later in data analysis, should only contain kinetic buffer.
# (§3) Biosensors were hydrated in kinetic buffer (lx PBS, 0.1% BSA, 0.02% Tween20, 0.05% Sodium Azide) at room temperature for 10 minutes.
# cynoPDL1 = assay: Octet antibody binding kinetics; design: species or system cyno
# Experimental: as §1, §2, §3
# IFN-γ production = IFN-γ production in mixed lymphocyte reaction (MLR) cultures; assay type: cell-based; settings: 4-day MLR culture, antibodies at 10 μg/mL, over control levels
# Experimental: FIG. 6 is a bar graph showing the effect of the disclosed PD-L1 antibodies on IFN-γ production. Antibodies were dosed into mixed lymphocyte reaction (MLR) cultures at a concentration of 10 μg/mL. Data were normalized to vehicle control and are presented as combined mean+SEM (n=6). *p<0.05**p<0.01,***p<0.001 indicates statistical significance when compared to appropriate isotype control (hIgG1) using Ordinary one-way ANOVA with Dunnett's multiple comparison post-hoc test.
# Antibodies were dosed into mixed lymphocyte reaction (MLR) cultures in order to determine the effects of the disclosed antibodies on IFN-γ production. The fold change in production of IFN-γ was determined after a 4-day MLR culture with antibodies at a concentration of 10 μg/mL. […] Further, many of the tested PD-L1 antibodies elicited a statistically significant increase in IFN-γ production, including a roughly 10-fold increase by CTI-33 and CTI-55 over control levels.
# PD-L1 [9] = biological target: T4, PD-L1; assay: ForteBio affinity measurements; settings: 100 nM antigen, 1:1 binding model
# Experimental: ForteBio affinity measurements were performed generally as previously described (see, e.g., Estep, P. et al., mAbs 5:270-278 (2013)). Briefly, ForteBio affinity measurements were performed by loading IgGs on-line onto AHQ sensors. Sensors were equilibrated off-line in assay buffer for 30 minutes and then monitored on-line for 60 seconds for baseline establishment. Sensors with loaded IgGs were exposed to 100 nM antigen for 5 minutes; afterwards, they were transferred to assay buffer for 5 minutes for off-rate measurement. Kinetics were analyzed using the 1:1 binding model.
# PD-L1 [10] = biological target: T4, PD-L1; settings: cited from earlier work
# SUDHL-1 lymphoma cells = assay: ADCC activity of anti-PD-L1 antibodies; assay type: cell-based; settings: PD-L1+ lymphoma cells with primary NK cells
# Experimental: Reporter bioassays were performed in order to determine antibody-dependent cell—mediates cytotoxicity (ADCC) of the disclosed anti-PD-L1 antibodies. The assays utilized SUDHL-1 lymphoma cells and donor PBMCs. Various antibodies were tested at concentrations of 1 or 3 μg/ml.
# The results of this study, which are shown for exemplary anti-PD-L1 antibody CTI-48 in FIG. 3, are represented by percent cytotoxicity following a 4 hour incubation with the disclosed antibodies.
# T4 sequence (Q9NZQ7 19-290): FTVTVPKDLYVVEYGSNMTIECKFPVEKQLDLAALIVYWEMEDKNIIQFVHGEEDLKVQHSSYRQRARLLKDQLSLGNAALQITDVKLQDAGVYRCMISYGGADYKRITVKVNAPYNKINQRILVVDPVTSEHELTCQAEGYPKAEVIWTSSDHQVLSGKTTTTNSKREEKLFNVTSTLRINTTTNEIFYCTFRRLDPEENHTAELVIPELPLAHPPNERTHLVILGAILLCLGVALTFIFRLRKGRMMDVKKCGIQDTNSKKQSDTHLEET
# T1 sequence (Q9NZQ7 19-238 limits assumed): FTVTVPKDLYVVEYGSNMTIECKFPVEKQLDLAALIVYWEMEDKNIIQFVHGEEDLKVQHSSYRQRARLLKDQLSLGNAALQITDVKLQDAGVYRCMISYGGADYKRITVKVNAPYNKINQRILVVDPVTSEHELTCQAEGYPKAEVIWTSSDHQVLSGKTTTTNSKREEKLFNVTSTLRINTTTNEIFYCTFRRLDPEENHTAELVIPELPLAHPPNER
# Sequence of PI3K isoforms (Human) α (P42336 whole entry, canonical isoform): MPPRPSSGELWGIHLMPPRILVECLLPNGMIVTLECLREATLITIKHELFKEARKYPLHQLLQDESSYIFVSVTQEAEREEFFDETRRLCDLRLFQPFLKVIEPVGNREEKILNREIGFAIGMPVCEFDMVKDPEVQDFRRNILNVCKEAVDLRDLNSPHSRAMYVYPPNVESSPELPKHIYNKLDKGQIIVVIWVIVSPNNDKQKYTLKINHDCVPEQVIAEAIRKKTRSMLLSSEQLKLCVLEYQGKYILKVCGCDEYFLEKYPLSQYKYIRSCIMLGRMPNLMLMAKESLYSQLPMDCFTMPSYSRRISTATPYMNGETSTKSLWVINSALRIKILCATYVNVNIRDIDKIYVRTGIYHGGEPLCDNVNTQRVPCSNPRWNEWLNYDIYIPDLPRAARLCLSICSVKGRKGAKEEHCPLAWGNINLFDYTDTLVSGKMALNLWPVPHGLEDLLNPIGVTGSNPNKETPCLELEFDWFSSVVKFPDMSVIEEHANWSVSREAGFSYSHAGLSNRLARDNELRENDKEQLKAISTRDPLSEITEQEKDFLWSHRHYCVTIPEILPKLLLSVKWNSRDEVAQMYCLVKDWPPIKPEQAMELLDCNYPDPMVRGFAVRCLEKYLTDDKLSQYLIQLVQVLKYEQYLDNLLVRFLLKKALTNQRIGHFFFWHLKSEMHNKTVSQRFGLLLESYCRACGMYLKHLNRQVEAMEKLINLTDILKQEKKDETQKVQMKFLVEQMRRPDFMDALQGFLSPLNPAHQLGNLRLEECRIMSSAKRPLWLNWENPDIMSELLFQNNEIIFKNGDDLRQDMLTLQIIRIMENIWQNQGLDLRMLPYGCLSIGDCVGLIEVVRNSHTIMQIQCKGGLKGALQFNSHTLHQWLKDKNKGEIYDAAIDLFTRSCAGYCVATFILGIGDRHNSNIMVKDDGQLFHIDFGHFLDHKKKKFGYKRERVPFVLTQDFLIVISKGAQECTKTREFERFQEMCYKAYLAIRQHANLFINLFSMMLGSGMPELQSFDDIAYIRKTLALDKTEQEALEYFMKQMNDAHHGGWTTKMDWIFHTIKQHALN
# Sequence of PI3K isoforms (Human) α (P27986 whole entry partner, canonical isoform): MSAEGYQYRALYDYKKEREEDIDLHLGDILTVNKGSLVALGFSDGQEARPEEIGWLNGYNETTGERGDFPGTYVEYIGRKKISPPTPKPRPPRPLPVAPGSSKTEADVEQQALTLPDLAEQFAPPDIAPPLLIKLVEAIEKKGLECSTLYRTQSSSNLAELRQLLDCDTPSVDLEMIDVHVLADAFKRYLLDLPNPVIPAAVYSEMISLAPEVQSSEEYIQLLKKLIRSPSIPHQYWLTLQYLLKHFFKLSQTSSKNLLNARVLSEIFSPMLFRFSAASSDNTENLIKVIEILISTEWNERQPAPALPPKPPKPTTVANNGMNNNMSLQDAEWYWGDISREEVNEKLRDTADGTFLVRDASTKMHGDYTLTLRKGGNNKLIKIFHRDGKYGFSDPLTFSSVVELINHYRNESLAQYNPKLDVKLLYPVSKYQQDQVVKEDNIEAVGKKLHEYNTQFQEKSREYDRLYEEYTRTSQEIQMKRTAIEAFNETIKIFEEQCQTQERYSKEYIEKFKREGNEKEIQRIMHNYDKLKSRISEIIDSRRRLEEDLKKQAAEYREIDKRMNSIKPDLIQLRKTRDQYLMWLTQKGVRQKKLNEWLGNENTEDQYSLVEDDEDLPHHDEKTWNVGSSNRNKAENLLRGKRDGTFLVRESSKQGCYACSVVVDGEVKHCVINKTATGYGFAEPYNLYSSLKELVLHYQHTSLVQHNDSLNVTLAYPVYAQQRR
# Sequence of PI3K isoforms (Human) γ (P48736 whole entry, canonical isoform): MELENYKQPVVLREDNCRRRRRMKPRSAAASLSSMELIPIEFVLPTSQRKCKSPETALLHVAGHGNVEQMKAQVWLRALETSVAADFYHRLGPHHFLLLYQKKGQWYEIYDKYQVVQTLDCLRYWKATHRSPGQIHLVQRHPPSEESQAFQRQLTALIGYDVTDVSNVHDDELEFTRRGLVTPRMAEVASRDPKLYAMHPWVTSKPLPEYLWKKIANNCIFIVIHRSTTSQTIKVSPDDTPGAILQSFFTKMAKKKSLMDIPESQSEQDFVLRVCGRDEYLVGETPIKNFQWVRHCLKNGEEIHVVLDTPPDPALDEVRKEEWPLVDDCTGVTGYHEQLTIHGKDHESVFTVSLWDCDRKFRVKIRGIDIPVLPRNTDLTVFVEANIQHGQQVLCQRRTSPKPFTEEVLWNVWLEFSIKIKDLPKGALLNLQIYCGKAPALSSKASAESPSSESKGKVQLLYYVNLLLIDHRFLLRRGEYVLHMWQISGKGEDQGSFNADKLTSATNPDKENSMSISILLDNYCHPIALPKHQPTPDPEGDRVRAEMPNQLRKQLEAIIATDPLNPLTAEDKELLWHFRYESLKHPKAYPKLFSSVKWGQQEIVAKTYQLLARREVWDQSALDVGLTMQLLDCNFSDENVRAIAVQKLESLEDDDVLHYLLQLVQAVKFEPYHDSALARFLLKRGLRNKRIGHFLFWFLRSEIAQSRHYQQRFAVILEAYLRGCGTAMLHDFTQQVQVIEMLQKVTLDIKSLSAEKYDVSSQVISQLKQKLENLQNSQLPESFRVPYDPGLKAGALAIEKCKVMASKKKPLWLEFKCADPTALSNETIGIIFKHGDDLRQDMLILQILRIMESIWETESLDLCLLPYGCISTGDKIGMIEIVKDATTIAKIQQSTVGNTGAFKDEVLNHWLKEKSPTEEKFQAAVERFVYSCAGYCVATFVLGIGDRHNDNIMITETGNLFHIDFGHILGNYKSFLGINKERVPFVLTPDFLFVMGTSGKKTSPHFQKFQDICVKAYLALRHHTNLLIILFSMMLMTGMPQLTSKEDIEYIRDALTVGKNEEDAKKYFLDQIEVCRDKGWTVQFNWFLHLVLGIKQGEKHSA
# T2 sequence (Q9NZQ7 19-290): as the sequence (Q9NZQ7 19-290) above
# T3 sequence (Q9NZQ7 19-238 limits assumed): as the sequence (Q9NZQ7 19-238 limits assumed) above
# Sequence of PI3K isoforms (Human) β (P42338 whole entry, canonical isoform): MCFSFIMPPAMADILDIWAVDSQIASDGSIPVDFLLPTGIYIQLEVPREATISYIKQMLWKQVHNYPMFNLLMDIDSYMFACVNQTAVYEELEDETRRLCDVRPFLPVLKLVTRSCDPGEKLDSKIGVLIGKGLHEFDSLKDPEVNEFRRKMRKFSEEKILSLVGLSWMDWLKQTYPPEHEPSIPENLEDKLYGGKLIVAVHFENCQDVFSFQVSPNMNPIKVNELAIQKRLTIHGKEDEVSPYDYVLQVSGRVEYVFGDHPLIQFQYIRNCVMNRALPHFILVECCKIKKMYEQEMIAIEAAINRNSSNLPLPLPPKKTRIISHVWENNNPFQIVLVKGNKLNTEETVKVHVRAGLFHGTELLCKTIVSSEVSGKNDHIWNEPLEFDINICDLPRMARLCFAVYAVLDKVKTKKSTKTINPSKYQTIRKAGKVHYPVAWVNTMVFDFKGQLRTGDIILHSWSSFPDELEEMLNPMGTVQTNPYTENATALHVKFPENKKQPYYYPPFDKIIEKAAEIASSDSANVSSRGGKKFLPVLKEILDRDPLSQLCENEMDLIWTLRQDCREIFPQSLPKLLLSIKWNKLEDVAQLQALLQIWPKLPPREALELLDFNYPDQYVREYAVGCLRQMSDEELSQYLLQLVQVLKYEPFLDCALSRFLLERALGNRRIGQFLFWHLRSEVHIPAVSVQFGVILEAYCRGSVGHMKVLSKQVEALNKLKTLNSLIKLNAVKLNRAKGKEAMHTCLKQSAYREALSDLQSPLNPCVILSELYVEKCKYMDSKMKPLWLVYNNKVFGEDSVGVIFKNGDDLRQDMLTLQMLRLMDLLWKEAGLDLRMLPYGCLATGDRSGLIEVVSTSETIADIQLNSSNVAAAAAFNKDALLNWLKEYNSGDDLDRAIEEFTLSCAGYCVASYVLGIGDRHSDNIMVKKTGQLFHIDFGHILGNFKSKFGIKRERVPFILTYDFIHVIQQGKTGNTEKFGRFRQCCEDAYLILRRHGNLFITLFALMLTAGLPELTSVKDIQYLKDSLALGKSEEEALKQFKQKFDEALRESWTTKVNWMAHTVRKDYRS
# Sequence of PI3K isoforms (Human) β (P27986 whole entry partner, canonical isoform): as the sequence (P27986 whole entry partner, canonical isoform) above
molecule,measurement,setting,value
pembrolizumab: humanized monoclonal IgG4 kappa antibody directed against PD-1,ORR,patients with CLL,0%
same,median PFS,patients with CLL,2.4 months
"CC(C)Oc1ccc(-c2nn([C@@H](C)c3oc4ccc(F)cc4c(=O)c3-c3cccc(F)c3)c3ncnc(N)c23)cc1F [TGR-1202, (S)-2-(1-(4-amino-3-(3-fluoro-4-isopropoxyphenyl)-1H-pyrazolo[3,4-d]pyrim-idin-1-yl)ethyl-6-fluoro-3-(3-fluorophenyl)-4H-chromen-4-one p-toluenesulfonic acid (PTSA) salt]",IC50,PI3K isoforms (Human) α,> 10000 nM
same,IC50,PI3K isoforms (Human) γ,1060 nM
same,AUC(0-inf),[1]; Fasting,8390 ng·h/mL
same,AUC(0-t),[1]; Fasting,6030 ng·h/mL
same,Cmax,[1]; Fasting,177 ng/mL
same,AUC(0-inf),[1]; Fed,14000 ng·h/mL
same,AUC(0-t),[1]; Fed,9690 ng·h/mL
same,Cmax,[1]; Fed,483 ng/mL
same,AUC(0-inf),[2]; Micronized Formulation,12400 ng·h/mL
same,AUC(0-t),[2]; Micronized Formulation,9440 ng·h/mL
same,Cmax,[2]; Micronized Formulation,372 ng/mL
same,AUC(0-inf),[2]; Non-Micronized Formulation,7720 ng·h/mL
same,AUC(0-t),[2]; Non-Micronized Formulation,5910 ng·h/mL
same,Cmax,[2]; Non-Micronized Formulation,166 ng/mL
same,hepatic toxicity,[3],no reported hepatic toxicity
same,tolerability,[3],well-tolerated
same,IC50,PI3K isoforms (Human) β,1120 nM
B1,koff,[4],0.0392 s⁻¹
same,kon,[4],492000 M⁻¹ s⁻¹
same,Kd,[5],79.7 nM
B2,koff,[4],0.00045 s⁻¹
same,kon,[4],520000 M⁻¹ s⁻¹
same,Kd,[5],0.86 nM
B3,koff,[4],0.0111 s⁻¹
same,kon,[4],461000 M⁻¹ s⁻¹
same,IC50,[6],3.46 µg/mL
same,Kd,[5],24.1 nM
B4,"EC50, recovery of NFAT signal",PD-1:PD-L1 ligation,0.0775 µg/mL
same,IC50 for binding inhibition,[7],0.1816 µg/mL
same,Kd,PD-L1 [8],0.847 nM
same,kdis,PD-L1 [8],0.00061 L/s
same,kon,PD-L1 [8],7.20E+05 l/Ms
same,Kd,cynoPDL1,0.555 nM
same,kdis,cynoPDL1,0.000635 L/s
same,kon,cynoPDL1,1.14E+06 l/Ms
same,fold change in production of IFN-γ,IFN-γ production,comparable response to a clinical control mAb
same,koff,PD-L1 [9],0.000633 s⁻¹
same,kon,PD-L1 [9],768000 M⁻¹ s⁻¹
same,Kd,PD-L1 [9]; read-out: IgG KD (M) Monovalent,8.24e-10 M
same,binding affinity for PD-L1,PD-L1 [10],sub-nanomolar
same,ADCC activity,SUDHL-1 lymphoma cells,exhibits ADCC activity

# — patent US20190247399A1, “COMBINATION OF AN ANTI-CD20 ANTIBODY, PI3 KINASE-DELTA INHIBITOR, AND ANTI-PD-1 OR ANTI-PD-L1 ANTIBODY FOR TREATING HEMATOLOGICAL CANCERS” (TG Therapeutics, Inc., priority 2016, published 2019)
